Publication PMC4851294 (PLoS ONE, 2016)

Experiments:
[1] = target: T1, 3-deoxy-D-arabino-heptulosonate 7-phosphate synthase (MtuDAH7PS) (Mycobacterium tuberculosis, UniProt O53512); assay: X-ray crystal structure (with D/L-Trp); format: binding
T1 construct: gene aroG; chain length 464 residues, homotetramer

C=C(OP(=O)(O)O)C(=O)O = assay: purified protein

T1 sequence (O53512 whole entry): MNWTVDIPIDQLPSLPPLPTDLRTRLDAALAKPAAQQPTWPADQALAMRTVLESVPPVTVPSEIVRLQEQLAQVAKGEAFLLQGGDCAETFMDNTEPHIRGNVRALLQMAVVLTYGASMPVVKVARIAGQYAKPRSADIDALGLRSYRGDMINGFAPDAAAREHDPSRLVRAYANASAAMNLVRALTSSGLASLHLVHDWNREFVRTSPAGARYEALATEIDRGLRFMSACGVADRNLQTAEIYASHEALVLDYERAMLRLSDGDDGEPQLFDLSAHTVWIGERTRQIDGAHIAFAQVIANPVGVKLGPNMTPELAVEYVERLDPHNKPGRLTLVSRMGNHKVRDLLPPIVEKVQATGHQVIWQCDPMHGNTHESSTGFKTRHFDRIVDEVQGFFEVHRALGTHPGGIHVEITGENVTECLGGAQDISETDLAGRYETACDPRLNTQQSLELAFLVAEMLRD

Compound	X-ray crystal structure (with D/L-Trp) [1]	Km (C=C(OP(=O)(O)O)C(=O)O) [µM]	kcat (C=C(OP(=O)(O)O)C(=O)O) [s⁻¹]	kcat/Km (C=C(OP(=O)(O)O)C(=O)O) [M⁻¹ s⁻¹]
N[C@@H](Cc1ccccc1)C(=O)O [L-Phe]	The Phe site in the structure obtained from these soaking conditions is occupied by L-Phe	–	–	–
3-deoxy-D-arabino-heptulosonate 7-phosphate synthase (MtuDAH7PS) (Mycobacterium tuberculosis H37Rv)	–	37 ± 4	4.7 ± 0.1	130000 ± 20000
